According to the supplement of paper PMC9112550, “Optimization of the antimicrobial peptide Bac7 by deep mutational scanning” (BMC Biology, 2022):

Test system: Escherichia coli TOP10
Assay: shrunken log2 fold change of peptide-encoding DNA abundance (4.5 h post-induction vs induction); higher = less antimicrobial activity (less host growth inhibition)
Settings: time post-induction: 4.5 h; library: site-saturation at positions 5, 18, 19, 20
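Also: peptides expressed intracellularly from a pBAD plasmid library in pooled LB shake-flask culture, induced with 0.3% L-arabinose, DNA abundance read by NGS, three biological replicates, DESeq2 with apeglm shrinkage.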

| Sequence | shrunken log2 fold change |
| --- | --- |
| RRIRYRPPRLPRPRPRPLEGPRP | 0.0645 |
| RRIRGRPPRLPRPRPRPHNFPRP | 0.0511 |
| RRIRLRPPRLPRPRPRPWASPRP | -0.0355 |
| RRIRIRPPRLPRPRPRPQHAPRP | 0.16 |
| RRIRHRPPRLPRPRPRPELMPRP | -0.141 |
| RRIRFRPPRLPRPRPRPSWFPRP | -0.403 |
| RRIRMRPPRLPRPRPRPTYTPRP | -0.173 |
| RRIRGRPPRLPRPRPRPQTPPRP | 1.36 |
| RRIRLRPPRLPRPRPRPRNFPRP | -0.112 |
| RRIRWRPPRLPRPRPRPWEDPRP | -0.0135 |
| RRIRYRPPRLPRPRPRPKPKPRP | 0.394 |
| RRIRPRPPRLPRPRPRPDVCPRP | -0.00807 |
| RRIRTRPPRLPRPRPRPLNRPRP | -0.173 |
| RRIRCRPPRLPRPRPRPNSRPRP | -0.175 |
| RRIRGRPPRLPRPRPRPCDPPRP | 0.228 |
| RRIRSRPPRLPRPRPRPLSWPRP | 0.239 |
| RRIRKRPPRLPRPRPRPWDIPRP | -0.0322 |
| RRIRFRPPRLPRPRPRPREMPRP | 0.286 |
| RRIRKRPPRLPRPRPRPAHPPRP | 0.711 |
| RRIRMRPPRLPRPRPRPSLHPRP | -0.222 |
| RRIRRRPPRLPRPRPRPAVYPRP | 0.0519 |
| RRIRCRPPRLPRPRPRPIAVPRP | -0.0152 |
| RRIRQRPPRLPRPRPRPNHAPRP | -0.474 |

| Sequence | shrunken log2 fold change |
| --- | --- |
| RRIRPRPPRLPRPRPRPSVCPRP | -0.273 |
| RRIRMRPPRLPRPRPRPEYNPRP | 0.25 |
| RRIRRRPPRLPRPRPRPSLTPRP | -0.0192 |
| RRIRARPPRLPRPRPRPCDHPRP | 0.0696 |
| RRIRWRPPRLPRPRPRPKIYPRP | -0.0902 |
| RRIRFRPPRLPRPRPRPMIEPRP | 0.0675 |
| RRIRERPPRLPRPRPRPDSHPRP | -0.6 |
| RRIRPRPPRLPRPRPRPKFMPRP | -0.171 |
| RRIRWRPPRLPRPRPRPCCWPRP | 0.438 |
| RRIRNRPPRLPRPRPRPPHCPRP | 0.0234 |
| RRIRGRPPRLPRPRPRPTWCPRP | 0.521 |
| RRIRDRPPRLPRPRPRPQALPRP | 0.214 |
| RRIRNRPPRLPRPRPRPGCAPRP | 0.426 |
| RRIRARPPRLPRPRPRPACCPRP | 0.658 |
| RRIRTRPPRLPRPRPRPCMDPRP | -0.459 |
| RRIRRRPPRLPRPRPRPYIVPRP | -0.263 |
| RRIRVRPPRLPRPRPRPSDNPRP | -0.878 |
| RRIRERPPRLPRPRPRPLQVPRP | -0.384 |
| RRIRPRPPRLPRPRPRPNQCPRP | -0.0767 |
| RRIRDRPPRLPRPRPRPQHAPRP | 0.044 |
| RRIRSRPPRLPRPRPRPLVAPRP | 0.27 |
| RRIRCRPPRLPRPRPRPINRPRP | 0.0376 |
| RRIRLRPPRLPRPRPRPWARPRP | 0.482 |

| Sequence | shrunken log2 fold change |
| --- | --- |
| RRIRRRPPRLPRPRPRPSMFPRP | -0.0509 |
| RRIRLRPPRLPRPRPRPKENPRP | 0.00493 |
| RRIRHRPPRLPRPRPRPGNKPRP | -0.089 |
| RRIRDRPPRLPRPRPRPITMPRP | 0.111 |
| RRIRPRPPRLPRPRPRPKNYPRP | -0.428 |
| RRIRQRPPRLPRPRPRPYAQPRP | -0.214 |
| RRIRWRPPRLPRPRPRPELMPRP | 0.0289 |
| RRIRCRPPRLPRPRPRPDKAPRP | -0.0544 |
| RRIRARPPRLPRPRPRPDQSPRP | 0.113 |
| RRIRLRPPRLPRPRPRPEYAPRP | -0.000852 |
| RRIRVRPPRLPRPRPRPKTNPRP | -0.117 |
| RRIRTRPPRLPRPRPRPQYWPRP | -0.163 |
| RRIRMRPPRLPRPRPRPPYSPRP | -0.0464 |
| RRIRLRPPRLPRPRPRPANQPRP | 0.137 |
| RRIRPRPPRLPRPRPRPSRVPRP | 0.269 |
| RRIRNRPPRLPRPRPRPATDPRP | 0.14 |
| RRIRNRPPRLPRPRPRPAESPRP | 0.37 |
| RRIRIRPPRLPRPRPRPYWYPRP | -0.0124 |
| RRIRWRPPRLPRPRPRPMKTPRP | -0.0156 |
| RRIRERPPRLPRPRPRPFRLPRP | -0.51 |
| RRIRKRPPRLPRPRPRPQFSPRP | 0.0164 |
| RRIRSRPPRLPRPRPRPPLLPRP | 0.0398 |
| RRIRPRPPRLPRPRPRPPGQPRP | 0.141 |

| Sequence | shrunken log2 fold change |
| --- | --- |
| RRIRCRPPRLPRPRPRPEVSPRP | 0.282 |
| RRIRYRPPRLPRPRPRPNPAPRP | 0.0854 |
| RRIRERPPRLPRPRPRPTQQPRP | 0.0931 |
| RRIRHRPPRLPRPRPRPHTDPRP | -0.212 |
| RRIRARPPRLPRPRPRPDAHPRP | 0.876 |
| RRIRARPPRLPRPRPRPMPRPRP | 0.827 |
| RRIRLRPPRLPRPRPRPSTGPRP | -0.221 |
| RRIRFRPPRLPRPRPRPTRDPRP | 0.613 |
| RRIRGRPPRLPRPRPRPMYFPRP | -0.0129 |
| RRIRPRPPRLPRPRPRPPVWPRP | 0.27 |
| RRIRQRPPRLPRPRPRPTQWPRP | 0.571 |
| RRIRGRPPRLPRPRPRPQSHPRP | 0.214 |
| RRIRDRPPRLPRPRPRPGEIPRP | 0.501 |
| RRIRVRPPRLPRPRPRPRYRPRP | -0.0212 |
| RRIRVRPPRLPRPRPRPYSQPRP | 0.0117 |
| RRIRFRPPRLPRPRPRPSLTPRP | -0.413 |
| RRIRYRPPRLPRPRPRPTAKPRP | 0.0338 |
| RRIRSRPPRLPRPRPRPVVFPRP | 0.11 |
| RRIRIRPPRLPRPRPRPALTPRP | 0.0227 |
| RRIRHRPPRLPRPRPRPTCMPRP | -0.184 |
| RRIRTRPPRLPRPRPRPVQQPRP | 0.0144 |
| RRIRSRPPRLPRPRPRPDNYPRP | -0.303 |
